Measurements taken from article PMC5218472 (PLoS Biology, 2017).

System: Ba/F3-gp130 cells
Assay: Proliferation of Ba/F3-gp130 cells with 10 ng/ml IL-6 plus recombinant sIL-6R or ds-sIL-6R (IL-6 trans-signaling), Cell Titer Blue
Assay type: cell-based
Settings: 0-100 ng/ml with 10 ng/ml IL-6, 48 h
Excerpt: Fig 1 The majority of sIL-6R in human serum is not generated by alternative mRNA splicing. (A) Multiple sequence alignment of amino acids Met-310 to Ala-370 of the full-length human IL-6R with the sIL-6R (Met-310 to Gln-357) and amino acids Met-310 to Leu-365 of the differentially spliced sIL-6R (ds-sIL-6R). The ten unique C-terminal amino-acid residues of the […], which represent the epitope against which the antibody ds6R was raised, are colored in green. (B, C) Proliferation assay of Ba/F3-gp130 cells in response to 10 ng/ml IL-6 and increasing amounts (0–100 ng/ml) of either (B) recombinant sIL-6R or (C) recombinant ds-sIL-6R. Cell viability was assessed after 48 h. […]
Proliferation of the different Ba/F3-gp130-IL-6R cell lines in response to IL-6 and Hyper-IL-6 and of Ba/F3-gp130 cells in response to IL-6 and the two different recombinant sIL-6R variants was determined using the Cell Titer Blue Cell viability assay reagent (Promega, Karlsruhe, Germany), following the manufacturer’s protocol as described previously. Values were measured in triplicates per experiment, and relative light units (RLU) obtained after 60 min were normalized by subtraction of control values obtained after 0 min. The maximum proliferation was set to 100%, and all other values were calculated accordingly.

B1: sIL-6R: recombinant soluble IL-6 receptor expressed in HEK293-EBNA cells (protein, UniProt P08887 20-365, looked up)
extracellular domain: LAPRRCPAQEVARGVLTSLPGDSVTLTCPGVEPEDNATVHWVLRKPAAGSHPSRWAGMGRRLLLRSVQLHDSGNYSCYRAGRPAGTVHLLVDVPPEEPQLSCFRKSPLSNVVCEWGPRSTPSLTTKAVLLVRKFQNSPAEDFQEPCQYSQESQKFSCQLAVPEGDSSFYIVSMCVASSVGSKFSKTQTFQGCGILQPDPPANITVTAVARNPRWLSVTWQDPHSWNSSFYRLRFELRYRAERSKTFTTWMVKDLQHHCVIHDAWSGLRHVVQLRAQEEFGQGEWSEWSPEAMGTPWTESRSPPAENEVSTPMQALTTNKDDDNILFRDSANATSLPVQDSSSVPLP
modifications: extracellular domain recombinant
notes: recombinant soluble IL-6 receptor expressed in HEK293-EBNA cells
  IL-6 trans-signaling activity, in words: biologically active
